Assay results: US20240309062A1

Each substance was assayed against T1, mouse IFNAR2 (mouse) (UniProt O35664) (assay: AlphaSeq (yeast mating, Aga2 display)).
T1 sequence: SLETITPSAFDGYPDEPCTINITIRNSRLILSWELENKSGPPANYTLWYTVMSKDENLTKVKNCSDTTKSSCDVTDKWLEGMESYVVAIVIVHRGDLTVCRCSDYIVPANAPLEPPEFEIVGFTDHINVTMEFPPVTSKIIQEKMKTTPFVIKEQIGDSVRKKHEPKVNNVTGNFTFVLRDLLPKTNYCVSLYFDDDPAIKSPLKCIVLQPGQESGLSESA

First: IFNA2b_L49P_A168D (from UniProt P01563 24-188) (ligand)
Second: IFNA2b_L49P_K156Q (from UniProt P01563 24-188) (ligand)
The apparent Kd (pooled screen) of the first is 8-fold higher: 586 nM for the first, 73 nM for the second.

“IFNA2b_L49P_L140N (from UniProt P01563 24-188) (ligand)” and “IFNA2b_L49P_R167I (from UniProt P01563 24-188) (ligand)” are within 1.5-fold of each other in apparent Kd (pooled screen): 480 nM for the first, 708 nM for the second.

First: IFNA2b_L49P_R167L (from UniProt P01563 24-188) (ligand)
Second: IFNA2b_L49P_R167T (from UniProt P01563 24-188) (ligand)
The apparent Kd (pooled screen) of the first is 1.5-fold lower: 1950 nM for the first, 3000 nM for the second.

Going from “IFNA2b_L49P_R167V (from UniProt P01563 24-188) (ligand)” to “IFNA2b_M44N_A120T (from UniProt P01563 24-188) (ligand)”, the apparent Kd (pooled screen) falls from 1740 nM to 591 nM (2.9-fold).

Going from “IFNA2b_M44N_E130M (from UniProt P01563 24-188) (ligand)” to “IFNA2b_M44N_E188R (from UniProt P01563 24-187) (ligand)”, the apparent Kd (pooled screen) falls from 825 nM to 520 nM (1.6-fold).

For “IFNA2b_M44N_V128G (from UniProt P01563 24-188) (ligand)”, the apparent Kd (pooled screen) was 472 nM.

The substances below were run against T1, mouse IFNAR2 (mouse) (assay: AlphaSeq).

“IFNA2b_L49P_A168K (from UniProt P01563 24-188) (ligand)” and “IFNA2b_L49P_A168Q (from UniProt P01563 24-188) (ligand)” are within 1.5-fold of each other in apparent Kd (pooled screen): 461 nM for the first, 321 nM for the second.

Going from “IFNA2b_L49P_E164D (from UniProt P01563 24-188) (ligand)” to “IFNA2b_L49P_K135I (from UniProt P01563 24-188) (ligand)”, the apparent Kd (pooled screen) rises from 75 nM to 697 nM (9.3-fold).

“IFNA2b_L49P_K156T (from UniProt P01563 24-188) (ligand)” and “IFNA2b_L49P_K187L (from UniProt P01563 24-188) (ligand)” are within 1.5-fold of each other in apparent Kd (pooled screen): 65 nM for the first, 85 nM for the second.

Going from “IFNA2b_L49P_K187R (from UniProt P01563 24-188) (ligand)” to “IFNA2b_L49P_K187Y (from UniProt P01563 24-188) (ligand)”, the apparent Kd (pooled screen) falls from 415 nM to 90 nM (4.6-fold).

“IFNA2b_L49P_L176P (from UniProt P01563 24-188) (ligand)” and “IFNA2b_L49P_N179G (from UniProt P01563 24-188) (ligand)” are within 1.5-fold of each other in apparent Kd (pooled screen): 69 nM for the first, 84 nM for the second.

Compared with “IFNA2b_L49P_R167A (from UniProt P01563 24-188) (ligand)”, “IFNA2b_L49P_R167H (from UniProt P01563 24-188) (ligand)” is 4.6-fold lower in apparent Kd (pooled screen): 2200 nM for the first, 480 nM for the second.

First: IFNA2b_L49P_R167K (from UniProt P01563 24-188) (ligand)
Second: IFNA2b_L49P_R167M (from UniProt P01563 24-188) (ligand)
The apparent Kd (pooled screen) of the first is 31-fold lower: 77 nM for the first, 2380 nM for the second.

First: IFNA2b_L49P_R167S (from UniProt P01563 24-188) (ligand)
Second: IFNA2b_L49P_R167W (from UniProt P01563 24-188) (ligand)
The apparent Kd (pooled screen) of the first is 10-fold higher: 65800 nM for the first, 6440 nM for the second.

First: IFNA2b_L49P_R172A (from UniProt P01563 24-188) (ligand)
Second: IFNA2b_L49P_R172E (from UniProt P01563 24-188) (ligand)
The apparent Kd (pooled screen) of the first is 6.9-fold lower: 6870 nM for the first, 47300 nM for the second.

Going from “IFNA2b_L49P_R172G (from UniProt P01563 24-188) (ligand)” to “IFNA2b_L49P_R172I (from UniProt P01563 24-188) (ligand)”, the apparent Kd (pooled screen) falls from 2260 nM to 310 nM (7.3-fold).

First: IFNA2b_L49P_R172M (from UniProt P01563 24-188) (ligand)
Second: IFNA2b_L49P_R172N (from UniProt P01563 24-188) (ligand)
The apparent Kd (pooled screen) of the first is 80-fold lower: 227 nM for the first, 18100 nM for the second.

“IFNA2b_L49P_R172Q (from UniProt P01563 24-188) (ligand)” and “IFNA2b_L49P_R172S (from UniProt P01563 24-188) (ligand)” are within 1.5-fold of each other in apparent Kd (pooled screen): 8550 nM for the first, 6190 nM for the second.

Compared with “IFNA2b_L49P_R172V (from UniProt P01563 24-188) (ligand)”, “IFNA2b_L49P_R172W (from UniProt P01563 24-188) (ligand)” is 18-fold higher in apparent Kd (pooled screen): 566 nM for the first, 9950 nM for the second.

“IFNA2b_L49P_S159H (from UniProt P01563 24-188) (ligand)” and “IFNA2b_L49P_S183Y (from UniProt P01563 24-188) (ligand)” are within 1.5-fold of each other in apparent Kd (pooled screen): 65 nM for the first, 75 nM for the second.

Compared with “IFNA2b_L49P_V165D (from UniProt P01563 24-188) (ligand)”, “IFNA2b_L49P_V165E (from UniProt P01563 24-188) (ligand)” is 1.6-fold lower in apparent Kd (pooled screen): 26100 nM for the first, 16400 nM for the second.

First: IFNA2b_L49P_V165F (from UniProt P01563 24-188) (ligand)
Second: IFNA2b_L49P_V165G (from UniProt P01563 24-188) (ligand)
The apparent Kd (pooled screen) of the first is 1.5-fold lower: 22900 nM for the first, 34400 nM for the second.

First: IFNA2b_L49P_V165Q (from UniProt P01563 24-188) (ligand)
Second: IFNA2b_L49P_V165R (from UniProt P01563 24-188) (ligand)
The apparent Kd (pooled screen) of the first is 2.1-fold higher: 18600 nM for the first, 8960 nM for the second.

Going from “IFNA2b_L49P_V165T (from UniProt P01563 24-188) (ligand)” to “IFNA2b_M44N_A168H (from UniProt P01563 24-188) (ligand)”, the apparent Kd (pooled screen) falls from 5950 nM to 802 nM (7.4-fold).

Compared with “IFNA2b_M44N_A168K (from UniProt P01563 24-188) (ligand)”, “IFNA2b_M44N_A168N (from UniProt P01563 24-188) (ligand)” is 16-fold lower in apparent Kd (pooled screen): 23300 nM for the first, 1500 nM for the second.

Going from “IFNA2b_M44N_A168Q (from UniProt P01563 24-188) (ligand)” to “IFNA2b_M44N_A168S (from UniProt P01563 24-188) (ligand)”, the apparent Kd (pooled screen) falls from 20000 nM to 545 nM (37-fold).

“IFNA2b_M44N_E155R (from UniProt P01563 24-188) (ligand)” and “IFNA2b_M44N_G125Y (from UniProt P01563 24-188) (ligand)” are within 1.5-fold of each other in apparent Kd (pooled screen): 7660 nM for the first, 5820 nM for the second.

Compared with “IFNA2b_M44N_K135G (from UniProt P01563 24-188) (ligand)”, “IFNA2b_M44N_K156E (from UniProt P01563 24-188) (ligand)” is 59-fold higher in apparent Kd (pooled screen): 416 nM for the first, 24400 nM for the second.

“IFNA2b_M44N_K187E (from UniProt P01563 24-188) (ligand)” and “IFNA2b_M44N_L176R (from UniProt P01563 24-188) (ligand)” are within 1.5-fold of each other in apparent Kd (pooled screen): 415 nM for the first, 541 nM for the second.

Compared with “IFNA2b_M44N_L184E (from UniProt P01563 24-188) (ligand)”, “IFNA2b_M44N_R167A (from UniProt P01563 24-188) (ligand)” is 7.1-fold higher in apparent Kd (pooled screen): 811 nM for the first, 5780 nM for the second.

First: IFNA2b_M44N_R167I (from UniProt P01563 24-188) (ligand)
Second: IFNA2b_M44N_R167L (from UniProt P01563 24-188) (ligand)
The apparent Kd (pooled screen) of the first is 2.2-fold higher: 4900 nM for the first, 2260 nM for the second.

“IFNA2b_M44N_R167T (from UniProt P01563 24-188) (ligand)” and “IFNA2b_M44N_R172W (from UniProt P01563 24-188) (ligand)” are within 1.5-fold of each other in apparent Kd (pooled screen): 7010 nM for the first, 8770 nM for the second.

Compared with “IFNA2b_M44N_S138W (from UniProt P01563 24-188) (ligand)”, “IFNA2b_M44N_S159D (from UniProt P01563 24-188) (ligand)” is 37-fold higher in apparent Kd (pooled screen): 942 nM for the first, 34500 nM for the second.

Going from “IFNA2b_M44N_S175E (from UniProt P01563 24-188) (ligand)” to “IFNA2b_M44N_S177D (from UniProt P01563 24-188) (ligand)”, the apparent Kd (pooled screen) rises from 484 nM to 12300 nM (25-fold).

“IFNA2b_M44N_T150G (from UniProt P01563 24-188) (ligand)” was tested, and the apparent Kd (pooled screen) was 528 nM.

What follows are substances tested against T1, mouse IFNAR2 (mouse) (assay: AlphaSeq, replicates).

For “IFNA2_L49P (from UniProt P01563 24-188) (ligand)”, the apparent Kd (pooled screen) was 20 nM.
